The labels stand for the following.
T1: NLRC4-CARD without SNAP (filament seed) (human, UniProt Q9NPP4 1-102)
T1 construct: CARD domain of human NLRC4, residues 1-102, construct without SNAP tag; source: E. coli BL21(DE3), purified (Ni-NTA, SEC), oligomeric seed fraction
T1 sequence (looked up): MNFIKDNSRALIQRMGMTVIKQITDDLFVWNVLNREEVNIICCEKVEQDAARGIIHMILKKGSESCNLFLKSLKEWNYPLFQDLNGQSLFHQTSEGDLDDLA

B1: recombinant CARD8-CARD (451-537) (domain or fragment, human, UniProt Q9Y2G2-5 451-537, looked up)
chain: AAFVKENHRQLQARMGDLKGVLDDLQDNEVLTENEKELVEQEKTRQSKNEALLSMVEKKGDLALDVLFRSISERDPYLVSYLRQQNL
notes: CARD domain of human CARD8, residues 451-537; the numbers fit the 537-residue isoform; Called 'untagged' in the seeding experiment, there meaning without the SNAP tag; also called CARD8-CARD filaments; CARD8-CARD without SNAP; source: E. coli BL21(DE3), purified (Ni-NTA, SEC)
B2: recombinant NLRP1-CARD (filament solved by cryo-EM) (domain or fragment, human, UniProt Q9C000 1374-1466, looked up)
chain: DAPQLLHFVDQYREQLIARVTSVEVVLDKLHGQVLSQEQYERVLAENTRPSQMRKLFSLSQSWDRKCKDGLYQALKETHPHLIMELWEKGSKK
notes: CARD domain of human NLRP1, construct 1374-1466; the results say that trimming of the last eight a.a; (1466-1473) stabilised the homogeneous single filament; two CARD constructs (1374-1466, 1374-1473) were cloned; also called NLRP1-CARD core filament; source: E. coli BL21(DE3), purified (Ni-NTA, SEC), concentrated to ~400 uM
B3: NLRC4-CARD filament (SNAP tag cleaved off), solved by cryo-EM (domain or fragment, human, UniProt Q9NPP4 1-102, looked up)
chain: T1 sequence (looked up)
notes: CARD domain of human NLRC4, residues 1-102; also called NLRC4-CARD thin filament; source: E. coli BL21(DE3), purified; filaments grown from SNAP-tagged monomer with seeds, SNAP cleaved by 3C protease, Superose 6; not shown: SNAP, C-terminal, cleaved
B4: recombinant NLRP1-FIIND^UPA-CARD (a.a. 1213-1473), bacteria-derived (domain or fragment, human, UniProt Q9C000 1213-1473, looked up)
chain: SPLGVLLKMIHNALRFIPVTSVVLLYHRVHPEEVTFHLYLIPSDCSIRKAIDDLEMKFQFVRIHKPPPLTPLYMGCRYTVSGSGSGMLEILPKELELCYRSPGEDQLFSEFYVGHLGSGIRLQVKDKKDETLVWEALVKPGDLMPATTLIPPARIAVPSPLDAPQLLHFVDQYREQLIARVTSVEVVLDKLHGQVLSQEQYERVLAENTRPSQMRKLFSLSQSWDRKCKDGLYQALKETHPHLIMELWEKGSKKGLLPLSS
notes: C-terminal auto-cleavage fragment (FIIND^UPA-CARD) of human NLRP1, a.a; 1213-1473; also called NLRP1-FIIND^UPA-CARD filaments; SNAP-NLRP1-FIIND^UPA-CARD
B5: CASP1-CARD-SNAP (domain or fragment, human, UniProt P29466 1-92, looked up)
chain: MADKVLKEKRKLFIRSMGEGTINGLLDELLQTRVLNKEEMEKVKRENATVMDKTRALIDSVIPKGAQACQICITYICEEDSYLAGTLGLSAD
modifications: Alexa Fluor 647 (BG-Alexa dye) on the SNAP tag in the native gel assay
notes: CARD domain of human caspase-1, residues 1-92; A 3C protease site lies between the CARD and the SNAP tag; also called SNAP-tagged CASP1-CARD; fluorescently labeled CASP1-CARD; not shown: SNAP, C-terminal, kept

A value given as a limit tells only on which side of the number the result lay.

In the data set “CASP1-CARD-SNAP” the target is B5. Put plainly: native gel or EMSA; in vitro oligomerization assay: Alexa Fluor 647-labelled monomeric SNAP-ASC-CARD or CASP1-CARD-SNAP (10 uM) mixed with 20 or 5 uM seed oligomer for 15 min at room temperature; Bis-Tris native PAGE, fluorescence scan. As to conditions: both partners purified.
Data set [1] deals with the molecule itself. Put plainly: cryo-EM structure; helical reconstruction of CARD filaments; ~2 mg/ml on Quantifoil R1.2/1.3 grids, Titan Krios 300 kV, RELION 3.0.
Data set [2] deals with the molecule itself. Put plainly: negative stain EM; recombinant NLRP1 constructs at various concentrations (Fig. 1e, f); samples below ~200 uM; NLRP1-CARD alone or with FIIND^UPA at 1:1 molar ratio.
Data set [3] deals with the molecule itself. Put plainly: native gel or EMSA; in vitro oligomerization assay: Alexa Fluor 647-labelled monomeric SNAP-ASC-CARD or CASP1-CARD-SNAP (10 uM) mixed with 20 or 5 uM seed oligomer for 15 min at room temperature; Bis-Tris native PAGE, fluorescence scan. In general terms: Mobility shift assays separate free from complexed probe on a gel.
For data set [4], the target named is T1, NLRC4-CARD without SNAP (filament seed). The description is as above. As to conditions: both partners purified.

Data on five molecules can be found in article PMC7794362, “Structural basis for distinct inflammasome complex assembly by human NLRP1 and CARD8” (Nature Communications, 2021).

As for B1, the binding result (in the data set with CASP1-CARD-SNAP; in data set [1]) was “binds” throughout.
Consider B2, for which, in data set [1], the binding result was “binds”.
B3: the binding result in data set [1] is recorded as “binds”.
As to B4, in data set [2], the “fold lower concentration requirement for oligomerization, against NLRP1-CARD” value is at least 50 fold.
On to B5, for which the binding result in data set [3] and in data set [4] was “binds” each time.
